This is an account of results in patent publication US6407207B1, “Cloned and expressed human bradykinin BK-2 receptor” (Merck & Co., Inc., priority 1992, dated 2002).

One assay deals with T1, human BK-2 receptor (Homo sapiens, UniProt P30411).
T1 construct: permitted the construction of a cDNA clone encoding a full length BK-2 receptor from the cleavage fragments of the two clones; expressed in transfected cells; host or cells: COS-7 cells, vector pcDNA I-Neo, membranes
T1 sequence (P30411 1-364 isoform P30411-2): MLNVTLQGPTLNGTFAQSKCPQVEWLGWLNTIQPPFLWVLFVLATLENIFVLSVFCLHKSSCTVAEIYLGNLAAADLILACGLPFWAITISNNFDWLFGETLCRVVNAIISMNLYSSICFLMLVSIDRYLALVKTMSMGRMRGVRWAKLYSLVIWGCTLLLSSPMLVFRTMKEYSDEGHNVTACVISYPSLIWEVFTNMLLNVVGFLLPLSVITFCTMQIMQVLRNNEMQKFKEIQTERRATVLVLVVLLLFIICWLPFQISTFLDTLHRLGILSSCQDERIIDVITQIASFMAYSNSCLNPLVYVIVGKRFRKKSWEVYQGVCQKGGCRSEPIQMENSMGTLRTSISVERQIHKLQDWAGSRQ
Description: Competition binding against 100 pM [3H]BK, membranes of COS-7 cells expressing the cloned receptor. To be noted: for IC50: competition with [3H]BK, read-out: IC50, displacement of [3H]BK binding; for Inhibition of BK binding: at a concentration of 10 uM. How it is done: (§1) Cells are then harvested after 72 hours and the membranes containing the expressed receptor protein are prepared by scraping the cells in phosphate buffered saline solution and centrifuging for ten minutes at 500×g. The cell pellet is then resuspended and homogenized with a Polytron in 20 mM N-tris(hydroxymethyl)methyl-2-aminoethane sulfonic acid (TES, pH 6.8 at room temperature) buffer containing 1 mM 1,10 phenanthroline. The homogenate is then centrifuged for ten minutes at […]. The final membrane pellet is resuspended in assay buffer (TES plus 0.1% protease free bovine serum albumin, 5 uM MK-422 (enalaprilat; Gross et al., J. Pharmacol. and Exper. Ther. 216, 552-557 (1981)) and 140 ug/ml bacitracin using a motor-driven teflon-glass tissue homogenizer. Protein determination are performed by the method of Bradford using bovine IgG as the standard. See Bradford, M. A. Anal. Biochem. 72, 248-254 (1976).
Binding assays are then performed to determine receptor antagonist or agonist interaction. The assays utilized in the instant invention follow the method of Manning et al., J. Pharmacol. Exp. Ther., 237, 504-512 (1986). […] (BRANDEL, Gaithersburg, Md.). The tubes are then rinsed two times with 4 ml ice-cold […] and the filter bound radioactivity is quantitated by liquid scintillation counting. […] The competition and saturation experiments are analyzed using the EBDA program of McPherson. See McPherson, G. A. J Pharmacol. Methods 14, 213-218 (1985).
as §1, with “Cells were” for “Cells are”, “protein were” for “protein are”, “pellet was” for “pellet is”, “homogenate was” for “homogenate is”, “al., 1981)” for “al., J. Pharmacol. and Exper. Ther. 216, 552-557 (1981))”, “determination was” for “determination are”
Binding assays were then performed to determine receptor antagonist or agonist interaction. The assays utilized in the instant invention follow the method of Manning et al., J. Pharmacol. Exp. Ther., 237, 504-512 (1986). […] (BRANDEL, Gaithersburg, Md.). The tubes were rinsed two times with 4 ml ice-cold […] and the filter bound radioactivity was quantitated by liquid scintillation counting. […] The competition and saturation experiments were analyzed using the EBDA program of McPherson. See McPherson, G. A. J Pharmacol. Methods 14, 213-218 (1985).

The target in the next assay is T2, B2 receptors (Homo sapiens, UniProt P30411).
T2 sequence (P30411 1-391): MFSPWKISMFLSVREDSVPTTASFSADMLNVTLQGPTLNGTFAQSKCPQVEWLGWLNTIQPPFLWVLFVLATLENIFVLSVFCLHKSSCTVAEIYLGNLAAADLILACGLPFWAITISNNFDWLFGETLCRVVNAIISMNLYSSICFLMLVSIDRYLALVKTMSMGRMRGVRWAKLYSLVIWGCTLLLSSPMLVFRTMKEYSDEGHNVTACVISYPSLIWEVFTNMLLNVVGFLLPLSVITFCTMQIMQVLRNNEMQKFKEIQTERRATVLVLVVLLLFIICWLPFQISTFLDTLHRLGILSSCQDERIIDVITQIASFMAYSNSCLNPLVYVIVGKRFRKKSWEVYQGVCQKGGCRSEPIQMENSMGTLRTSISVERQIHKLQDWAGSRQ
The settings on record: cited from earlier work.

In another assay the test system is rat vas deferens. The settings on record: cited from earlier work.
Assay [1] deals with T3, human bradykinin BK-2 receptor protein (human), P30411.
T3 chain: T1 sequence (P30411 1-364 isoform P30411-2)
Put plainly: displacement of 100 pM [3H]BK, cloned human BK-2 receptor in membranes.

In assay [2] the target is T4, human bradykinin BK-2 receptor protein (human, UniProt P30411 28-391).
T4 construct: also called human BK-2 bradykinin receptor; cloned BK receptor
T4 sequence: T1 sequence (P30411 1-364 isoform P30411-2)
Put plainly: competition binding with 100 pM [3H]BK, cloned human BK-2 receptor in membranes. How it is done:
(§2) Binding assays are then performed to determine receptor antagonist or agonist interaction. The assays utilized in the instant invention follow the method of Manning et al., *J. Pharmacol. Exp. Ther.*, 237, 504–512 (1986). […] (BRANDEL, Gaithersburg, Md.). The tubes are then rinsed two times with 4 ml ice-cold […] and the filter bound radioactivity is quantitated by liquid scintillation counting. […] The competition and saturation experiments are analyzed using the EBDA program of McPherson. See McPherson, G. A. *J Pharmacol. Methods* 14, 213–218 (1985).
(§3) Binding assays were then performed to determine receptor antagonist or agonist interaction. The assays utilized in the instant invention follow the method of Manning et al., *J. Pharmacol. Exp. Ther.*, 237, 504–512 (1986). […] (BRANDEL, Gaithersburg, Md.). The tubes were rinsed two times with 4 ml ice-cold […] and the filter bound radioactivity was quantitated by liquid scintillation counting. […] The competition and saturation experiments were analyzed using the EBDA program of McPherson. See McPherson, G. A. *J Pharmacol. Methods* 14, 213–218 (1985).

Assay [3] addresses T4, human bradykinin BK-2 receptor protein. Description: competition binding with 100 pM [3H]BK, membranes of COS-7 cells expressing the receptor. The protocol:
as §2, §3

Where a SMILES comes first, the peptide text is derived from it. Where no end group is shown, it is not given here. [ ]: non-standard residue; d: D form. Hyp = O=C(O)[C@@H]1C[C@@H](O)CN1; 2Thi = N[C@@H](Cc1cccs1)C(=O)O

What is called IC50 is the concentration that gives 50% inhibition. For `N=C(N)NCCC[C@@H](N)C(=O)N[C@@H](CCCNC(=N)N)C(=O)N1C[C@H](O)C[C@H]1C(=O)N1C[C@H](O)C[C@H]1C(=O)NCC(=O)N[C@@H](Cc1cccs1)C(=O)N[C@@H](CO)C(=O)N[C@H](Cc1ccccc1)C(=O)N[C@@H](Cc1cccs1)C(=O)N[C@@H](CCCNC(=N)N)C(=O)O` [D-Arg^0-[Hyp^2,3,-Thi^5,8D-Phe^7]BK] (H-[dR]R[Hyp][Hyp]G[2Thi]S[dF][2Thi]R-OH; N-terminus and C-terminus assumed), the IC50 on human BK-2 receptor was 27 nM. Still for that read-out and setting: with `N=C(N)NCCC[C@H](NC(=O)[C@H](Cc1cccs1)NC(=O)[C@@H](Cc1ccccc1)NC(=O)[C@H](CO)NC(=O)[C@H](Cc1cccs1)NC(=O)CNC(=O)[C@@H]1CCCN1C(=O)[C@@H]1CCCN1C(=O)[C@@H](N)CCCNC(=N)N)C(=O)O` [[Thi^5,8,D-Phe^7]BK] (H-RPPG[2Thi]S[dF][2Thi]R-OH; N-terminus and C-terminus assumed) the figure was 180 nM. For the molecule `CC[C@H](C)[C@H](NC(=O)[C@H](CC(=O)O)NC(=O)[C@H](CC(C)C)NC(=O)[C@H](Cc1c[nH]cn1)NC(=O)[C@@H]1CSSC[C@H](N)C(=O)N[C@@H](CO)C(=O)N[C@H]2CSSC[C@H](NC(=O)[C@H](CCC(=O)O)NC(=O)[C@H](CCCCN)NC(=O)[C@H](CC(=O)O)NC(=O)[C@H](CCSC)NC(=O)[C@H](CC(C)C)NC(=O)[C@H](CO)NC(=O)[C@H](CO)NC2=O)C(=O)N[C@@H](C(C)C)C(=O)N[C@@H](Cc2ccc(O)cc2)C(=O)N[C@@H](Cc2ccccc2)C(=O)N1)C(=O)N[C@H](C(=O)N[C@@H](Cc1c[nH]c2ccccc12)C(=O)O)[C@@H](C)CC` [endothelin], the “Competition for BK binding” value on human BK-2 receptor is reported as “No competition”.

As to `CC[C@H](C)[C@@H]1NC(=O)[C@H](Cc2ccc(O)cc2)NC(=O)[C@@H](N)CSSC[C@@H](C(=O)N2CCC[C@H]2C(=O)N[C@@H](CC(C)C)C(=O)NCC(N)=O)NC(=O)[C@H](CC(N)=O)NC(=O)[C@H](CCC(N)=O)NC1=O` [oxytocin], the “Competition for BK binding” value at human BK-2 receptor is given as “No competition”. As for “Des-Arg^9BK (RPPGFSPF) [BK-1 agonist, BK metabolite]”, in the assay with human BK-2 receptor, the “Inhibition of BK binding” value was 18%. The “Activity at B2 receptors” value in the assay with B2 receptors was “inactive”. Also, in the assay with rat vas deferens, the “Pre- or postsynaptic BK like responses” value was “inactive”. Turning to angiotensin I (DRVYIHPFHL) [peptide], the “Competition for BK binding” value with human BK-2 receptor was “No competition”. On the same count and under the same terms, with angiotensin II (DRVYIHPF) [peptide] the entry was “No competition”. In the case of des-Arg^9-[Leu^8]-BK [Des-Arg^9, LeuBK], the “Inhibition of BK binding” value with human BK-2 receptor turned out to be 11%. The “Pre- or postsynaptic BK like responses” value in the assay with rat vas deferens was “inactive”. Also, the “Antagonism of BK responses in the vas deferens” value in the assay on rat vas deferens (incubation at high concentrations) is “failed to antagonize”.

With met-lys-BK, the “Specificity of binding of BK analogues (rank order)” value with human BK-2 receptor (competition binding, data not shown) is given as “BK>lys-BK>met-lys-BK”. In turn, [dR]R[Hyp][Hyp]G[2Thi]S[dF][2Thi]R [D-Arg^0-[Hyp^2,3,-Thi^5,8D-Phe^7]BK] registered a half-inhibitory concentration (IC50) in assay [1] of 27 nM.

B1: Hoe 140, D-Arg^0-[Hyp^3,Thi^5,D-Tic^7,Oic^8]BK (peptide)
peptide: RRPPGFSPFR
modifications: numbered on bradykinin: D-Arg at 0; Hyp at 3; Thi at 5; D-Tic at 7; Oic at 8
notes: Synthetic BK-2 antagonist with non-natural residues
As to B1, the IC50 in assay [2] was found to be 0.065 nM. CYIQNCPLG (peptide, UniProt P01178 20-28, looked up) [oxytocin]: the binding result in assay [3] is listed as “no binding”.

B2: met-lys-BK (peptide)
peptide: MKRPPGFSPFR
notes: It is built from its name (Met-Lys + bradykinin)
Take B2: the binding result in assay [3] is listed as “binds”.
